According to US20250084142A1 (INTARCIA THERAPEUTICS, published 2025):
Starred links: 1 amine or outer side, 2 acyl side, 3 side chain; linkers in the order of their positions; H or OH if unused. Non-standard residues stand in square brackets, D forms with d. Groups on a side chain read outwards from the residue. No end group written: not given here. *: point of attachment. C20 diacid = O=C(O)CCCCCCCCCCCCCCCCCCC(=O)*; γGlu = O=C(O)[C@H](CCC(=O)[*:2])N[*:1]; NMeY = CN[C@@H](Cc1ccc(O)cc1)C(=O)O

T1: NPY5R
T1 sequence (Q15761 1-445, species assumed, looked up): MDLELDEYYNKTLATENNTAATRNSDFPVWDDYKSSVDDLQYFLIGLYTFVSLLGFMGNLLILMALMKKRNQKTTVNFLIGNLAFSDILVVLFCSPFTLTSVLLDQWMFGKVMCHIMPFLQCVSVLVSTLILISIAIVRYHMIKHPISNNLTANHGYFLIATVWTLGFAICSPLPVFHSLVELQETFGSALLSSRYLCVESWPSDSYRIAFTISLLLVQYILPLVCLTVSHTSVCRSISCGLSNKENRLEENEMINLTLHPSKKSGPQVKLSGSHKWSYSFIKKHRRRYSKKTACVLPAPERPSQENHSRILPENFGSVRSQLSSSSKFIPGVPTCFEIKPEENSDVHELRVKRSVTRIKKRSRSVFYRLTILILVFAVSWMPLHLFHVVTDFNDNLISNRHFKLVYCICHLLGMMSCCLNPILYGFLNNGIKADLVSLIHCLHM

T2: NPY2R
T2 sequence (P49146 1-381, species assumed, looked up): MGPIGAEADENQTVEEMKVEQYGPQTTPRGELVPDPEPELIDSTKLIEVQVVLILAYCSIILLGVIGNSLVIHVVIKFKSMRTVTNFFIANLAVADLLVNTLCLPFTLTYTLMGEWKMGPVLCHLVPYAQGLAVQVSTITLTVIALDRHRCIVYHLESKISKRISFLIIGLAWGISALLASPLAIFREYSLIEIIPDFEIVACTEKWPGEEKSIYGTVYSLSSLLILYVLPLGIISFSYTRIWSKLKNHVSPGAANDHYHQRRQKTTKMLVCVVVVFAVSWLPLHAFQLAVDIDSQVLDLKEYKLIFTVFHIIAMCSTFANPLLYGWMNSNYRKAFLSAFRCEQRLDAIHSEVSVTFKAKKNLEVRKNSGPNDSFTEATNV

B1: Compound A70 (peptide)
peptide: PKPEKPGKDASPK([γGlu-γGlu-C20 diacid])EWNRYYKDLRHYLNWLTRQRF-NH2
modifications: N-terminus assumed
SMILES: CC(C)C[C@H](NC(=O)[C@H](CC(=O)O)NC(=O)[C@H](CCCCN)NC(=O)[C@H](Cc1ccc(O)cc1)NC(=O)[C@H](Cc1ccc(O)cc1)NC(=O)[C@H](CCCNC(=N)N)NC(=O)[C@H](CC(N)=O)NC(=O)[C@H](Cc1c[nH]c2ccccc12)NC(=O)[C@H](CCC(=O)O)NC(=O)[C@H](CCCCNC(=O)CC[C@H](NC(=O)CC[C@H](NC(=O)CCCCCCCCCCCCCCCCCCC(=O)O)C(=O)O)C(=O)O)NC(=O)[C@@H]1CCCN1C(=O)[C@H](CO)NC(=O)[C@H](C)NC(=O)[C@H](CC(=O)O)NC(=O)[C@H](CCCCN)NC(=O)CNC(=O)[C@@H]1CCCN1C(=O)[C@H](CCCCN)NC(=O)[C@H](CCC(=O)O)NC(=O)[C@@H]1CCCN1C(=O)[C@H](CCCCN)NC(=O)[C@@H]1CCCN1)C(=O)N[C@@H](CCCNC(=N)N)C(=O)N[C@@H](Cc1c[nH]cn1)C(=O)N[C@@H](Cc1ccc(O)cc1)C(=O)N[C@@H](CC(C)C)C(=O)N[C@@H](CC(N)=O)C(=O)N[C@@H](Cc1c[nH]c2ccccc12)C(=O)N[C@@H](CC(C)C)C(=O)N[C@H](C(=O)N[C@@H](CCCNC(=N)N)C(=O)N[C@@H](CCC(N)=O)C(=O)N[C@@H](CCCNC(=N)N)C(=O)N[C@@H](Cc1ccccc1)C(N)=O)[C@@H](C)O
B2: Compound A71 (peptide)
peptide: PKPEK([γGlu-γGlu-C20 diacid])PGKDASPKEWNRYYKDLRHYLNWLTRQRF-NH2
modifications: N-terminus assumed
SMILES: CC(C)C[C@H](NC(=O)[C@H](CC(=O)O)NC(=O)[C@H](CCCCN)NC(=O)[C@H](Cc1ccc(O)cc1)NC(=O)[C@H](Cc1ccc(O)cc1)NC(=O)[C@H](CCCNC(=N)N)NC(=O)[C@H](CC(N)=O)NC(=O)[C@H](Cc1c[nH]c2ccccc12)NC(=O)[C@H](CCC(=O)O)NC(=O)[C@H](CCCCN)NC(=O)[C@@H]1CCCN1C(=O)[C@H](CO)NC(=O)[C@H](C)NC(=O)[C@H](CC(=O)O)NC(=O)[C@H](CCCCN)NC(=O)CNC(=O)[C@@H]1CCCN1C(=O)[C@H](CCCCNC(=O)CC[C@H](NC(=O)CC[C@H](NC(=O)CCCCCCCCCCCCCCCCCCC(=O)O)C(=O)O)C(=O)O)NC(=O)[C@H](CCC(=O)O)NC(=O)[C@@H]1CCCN1C(=O)[C@H](CCCCN)NC(=O)[C@@H]1CCCN1)C(=O)N[C@@H](CCCNC(=N)N)C(=O)N[C@@H](Cc1c[nH]cn1)C(=O)N[C@@H](Cc1ccc(O)cc1)C(=O)N[C@@H](CC(C)C)C(=O)N[C@@H](CC(N)=O)C(=O)N[C@@H](Cc1c[nH]c2ccccc12)C(=O)N[C@@H](CC(C)C)C(=O)N[C@H](C(=O)N[C@@H](CCCNC(=N)N)C(=O)N[C@@H](CCC(N)=O)C(=O)N[C@@H](CCCNC(=N)N)C(=O)N[C@@H](Cc1ccccc1)C(N)=O)[C@@H](C)O
B3: Compound A74 (peptide)
peptide: PKPEKPGK([γGlu-γGlu-C20 diacid])DASPEEWNRYYKDLRHYLNWLTRQRF-NH2
modifications: N-terminus assumed
SMILES: CC(C)C[C@H](NC(=O)[C@H](CC(=O)O)NC(=O)[C@H](CCCCN)NC(=O)[C@H](Cc1ccc(O)cc1)NC(=O)[C@H](Cc1ccc(O)cc1)NC(=O)[C@H](CCCNC(=N)N)NC(=O)[C@H](CC(N)=O)NC(=O)[C@H](Cc1c[nH]c2ccccc12)NC(=O)[C@H](CCC(=O)O)NC(=O)[C@H](CCC(=O)O)NC(=O)[C@@H]1CCCN1C(=O)[C@H](CO)NC(=O)[C@H](C)NC(=O)[C@H](CC(=O)O)NC(=O)[C@H](CCCCNC(=O)CC[C@H](NC(=O)CC[C@H](NC(=O)CCCCCCCCCCCCCCCCCCC(=O)O)C(=O)O)C(=O)O)NC(=O)CNC(=O)[C@@H]1CCCN1C(=O)[C@H](CCCCN)NC(=O)[C@H](CCC(=O)O)NC(=O)[C@@H]1CCCN1C(=O)[C@H](CCCCN)NC(=O)[C@@H]1CCCN1)C(=O)N[C@@H](CCCNC(=N)N)C(=O)N[C@@H](Cc1c[nH]cn1)C(=O)N[C@@H](Cc1ccc(O)cc1)C(=O)N[C@@H](CC(C)C)C(=O)N[C@@H](CC(N)=O)C(=O)N[C@@H](Cc1c[nH]c2ccccc12)C(=O)N[C@@H](CC(C)C)C(=O)N[C@H](C(=O)N[C@@H](CCCNC(=N)N)C(=O)N[C@@H](CCC(N)=O)C(=O)N[C@@H](CCCNC(=N)N)C(=O)N[C@@H](Cc1ccccc1)C(N)=O)[C@@H](C)O
B4: Compound A5 (peptide)
peptide: PK([γGlu-γGlu-C20 diacid])PEAPGKDASPEEWNRYYADARHYLNWLTRQR[NMeY]-NH2
modifications: N-terminus assumed
SMILES: CC(C)C[C@H](NC(=O)[C@H](Cc1ccc(O)cc1)NC(=O)[C@H](Cc1c[nH]cn1)NC(=O)[C@H](CCCNC(=N)N)NC(=O)[C@H](C)NC(=O)[C@H](CC(=O)O)NC(=O)[C@H](C)NC(=O)[C@H](Cc1ccc(O)cc1)NC(=O)[C@H](Cc1ccc(O)cc1)NC(=O)[C@H](CCCNC(=N)N)NC(=O)[C@H](CC(N)=O)NC(=O)[C@H](Cc1c[nH]c2ccccc12)NC(=O)[C@H](CCC(=O)O)NC(=O)[C@H](CCC(=O)O)NC(=O)[C@@H]1CCCN1C(=O)[C@H](CO)NC(=O)[C@H](C)NC(=O)[C@H](CC(=O)O)NC(=O)[C@H](CCCCN)NC(=O)CNC(=O)[C@@H]1CCCN1C(=O)[C@H](C)NC(=O)[C@H](CCC(=O)O)NC(=O)[C@@H]1CCCN1C(=O)[C@H](CCCCNC(=O)CC[C@H](NC(=O)CC[C@H](NC(=O)CCCCCCCCCCCCCCCCCCC(=O)O)C(=O)O)C(=O)O)NC(=O)[C@@H]1CCCN1)C(=O)N[C@@H](CC(N)=O)C(=O)N[C@@H](Cc1c[nH]c2ccccc12)C(=O)N[C@@H](CC(C)C)C(=O)N[C@H](C(=O)N[C@@H](CCCNC(=N)N)C(=O)N[C@@H](CCC(N)=O)C(=O)N[C@@H](CCCNC(=N)N)C(=O)N(C)[C@@H](Cc1ccc(O)cc1)C(N)=O)[C@@H](C)O
B5: Compound A78 (peptide)
peptide: PKPEK([γGlu-γGlu-C20 diacid])PGEDASPKEWDRYYKDLRHYLNWLTRQRF-NH2
modifications: N-terminus assumed
SMILES: CC(C)C[C@H](NC(=O)[C@H](CC(=O)O)NC(=O)[C@H](CCCCN)NC(=O)[C@H](Cc1ccc(O)cc1)NC(=O)[C@H](Cc1ccc(O)cc1)NC(=O)[C@H](CCCNC(=N)N)NC(=O)[C@H](CC(=O)O)NC(=O)[C@H](Cc1c[nH]c2ccccc12)NC(=O)[C@H](CCC(=O)O)NC(=O)[C@H](CCCCN)NC(=O)[C@@H]1CCCN1C(=O)[C@H](CO)NC(=O)[C@H](C)NC(=O)[C@H](CC(=O)O)NC(=O)[C@H](CCC(=O)O)NC(=O)CNC(=O)[C@@H]1CCCN1C(=O)[C@H](CCCCNC(=O)CC[C@H](NC(=O)CC[C@H](NC(=O)CCCCCCCCCCCCCCCCCCC(=O)O)C(=O)O)C(=O)O)NC(=O)[C@H](CCC(=O)O)NC(=O)[C@@H]1CCCN1C(=O)[C@H](CCCCN)NC(=O)[C@@H]1CCCN1)C(=O)N[C@@H](CCCNC(=N)N)C(=O)N[C@@H](Cc1c[nH]cn1)C(=O)N[C@@H](Cc1ccc(O)cc1)C(=O)N[C@@H](CC(C)C)C(=O)N[C@@H](CC(N)=O)C(=O)N[C@@H](Cc1c[nH]c2ccccc12)C(=O)N[C@@H](CC(C)C)C(=O)N[C@H](C(=O)N[C@@H](CCCNC(=N)N)C(=O)N[C@@H](CCC(N)=O)C(=O)N[C@@H](CCCNC(=N)N)C(=O)N[C@@H](Cc1ccccc1)C(N)=O)[C@@H](C)O

biological target: T1, NPY5R; test: cell-based or functional assay

First: PKPEAPGK([γGlu-γGlu-C20 diacid])DASPEEWNRYKKDLRHYLNWLTRQRF-NH2 [Compound A69]
Second: B1
The “NPY5R pEC50” value of the first is lower: 8.3 -Log(EC50, M) for the first, 8.7 -Log(EC50, M) for the second.

Compared with B2, PKPEAPGK([γGlu-γGlu-C20 diacid])DASPKEWNRYYKDLRHYLNWLTRQRF-NH2 [Compound A73] is lower in “NPY5R pEC50” value: 8.8 -Log(EC50, M) for the first, 8.6 -Log(EC50, M) for the second.

Going from B3 to PKPEAPGK([γGlu-γGlu-C20 diacid])DASPKEWDRYYKDLRHYLNWLTRQRF-NH2 [Compound A76], the “NPY5R pEC50” value falls from 9 -Log(EC50, M) to 8.9 -Log(EC50, M).

First: B4
Second: B5
The “NPY5R pEC50” value of the first is lower: 8 -Log(EC50, M) for the first, 8.5 -Log(EC50, M) for the second.

biological target: T2, NPY2R; test: cell-based or functional assay

First: PKPEAPGK([γGlu-γGlu-C20 diacid])DASPEEWNRYKKDLRHYLNWLTRQRF-NH2 [Compound A69]
Second: B1
The “NPY2R pEC50” value of the first is lower: 10 -Log(EC50, M) for the first, 10.4 -Log(EC50, M) for the second.

First: B2
Second: PKPEAPGK([γGlu-γGlu-C20 diacid])DASPKEWNRYYKDLRHYLNWLTRQRF-NH2 [Compound A73]
The “NPY2R pEC50” value of the first is higher: 10.7 -Log(EC50, M) for the first, 10.3 -Log(EC50, M) for the second.

Going from B3 to PKPEAPGK([γGlu-γGlu-C20 diacid])DASPKEWDRYYKDLRHYLNWLTRQRF-NH2 [Compound A76], the “NPY2R pEC50” value rises from 10.3 -Log(EC50, M) to 10.4 -Log(EC50, M).

Compared with B4, B5 is higher in “NPY2R pEC50” value: 7.7 -Log(EC50, M) for the first, 10.2 -Log(EC50, M) for the second.
